The target in this data set is Mig1 (Xanthophyllomyces dendrorhous) (UniProt A0A1C9UL02). Kind of data set: EMSA. The conditions noted are these: 20 mM HEPES pH 7.9, 50 mM KCl, 1 mM DTT, 0.1 mM EDTA, 5% glycerol (+2.5%), 200 ug/ml BSA, 50 ng/ul poly(dI-dC), 0.05% NP-40, 20 fmol DNA, 10 ug Mig1 in 20 ul …. A general note: Mobility shift assays separate free from complexed probe on a gel.
Chain of Mig1 (Xanthophyllomyces dendrorhous) (A0A1C9UL02 entry or part of it): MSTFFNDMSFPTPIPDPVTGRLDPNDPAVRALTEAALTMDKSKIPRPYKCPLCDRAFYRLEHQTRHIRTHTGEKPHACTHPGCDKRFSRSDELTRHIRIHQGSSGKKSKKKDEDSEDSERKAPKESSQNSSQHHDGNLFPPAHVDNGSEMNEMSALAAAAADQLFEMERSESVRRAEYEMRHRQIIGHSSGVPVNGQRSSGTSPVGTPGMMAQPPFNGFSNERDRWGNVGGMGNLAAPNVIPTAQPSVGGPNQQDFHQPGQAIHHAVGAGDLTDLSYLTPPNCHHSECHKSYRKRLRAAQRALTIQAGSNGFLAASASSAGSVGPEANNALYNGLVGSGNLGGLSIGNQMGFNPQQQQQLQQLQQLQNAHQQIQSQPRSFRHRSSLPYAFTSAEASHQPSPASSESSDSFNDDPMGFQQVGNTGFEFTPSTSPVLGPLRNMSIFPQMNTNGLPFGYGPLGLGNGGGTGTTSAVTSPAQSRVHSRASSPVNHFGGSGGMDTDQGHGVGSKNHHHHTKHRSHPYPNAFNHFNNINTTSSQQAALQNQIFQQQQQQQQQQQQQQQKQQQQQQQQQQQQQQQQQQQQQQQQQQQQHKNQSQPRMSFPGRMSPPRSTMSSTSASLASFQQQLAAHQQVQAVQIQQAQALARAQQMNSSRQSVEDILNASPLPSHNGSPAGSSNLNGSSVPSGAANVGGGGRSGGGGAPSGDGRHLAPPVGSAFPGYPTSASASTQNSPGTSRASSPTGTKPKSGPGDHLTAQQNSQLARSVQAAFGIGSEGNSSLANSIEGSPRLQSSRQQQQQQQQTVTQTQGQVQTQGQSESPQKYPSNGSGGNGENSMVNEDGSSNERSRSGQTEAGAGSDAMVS

Regarding “GAAGATGATGCGGCGGCAACTGGTTCTGGGCTGGGGAACACCCTATTCGACCGGTTGAATGAGTCACAATCGGCCGGCAGCCCTGCTGCAGGCACCGGCGCAAGTGGCTCCGGACCGAAGCCTCGCCAGCAGTTGATCAAGCGAACCAAGCCGAACAATCCTGGCGCGCCTGGAGGAGCGGGAGCGGGAGGAGCAGCAGGTGATGCATC (double strand) [crtS promoter boxes C-D 209 bp]”, the binding entry was “binds”.

These data come from paper PMC5021340.
